Paper PMC7968997
Changes are numbered by the printed parent chain.

How the values were obtained:
Test in all cases: fluorescence polarization
RRM2 analog Y165A = biological target: T1, RRM2 analog Y165A (Homo sapiens, UniProt Q8IUH3 23-202, F29A;F70A;Y165A)
T1 sequence: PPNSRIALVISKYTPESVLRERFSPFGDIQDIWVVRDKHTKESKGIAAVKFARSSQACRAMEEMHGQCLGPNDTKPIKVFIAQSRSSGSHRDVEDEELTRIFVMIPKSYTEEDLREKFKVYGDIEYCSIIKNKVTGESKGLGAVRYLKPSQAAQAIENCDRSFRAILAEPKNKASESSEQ

RRM2 analog F124A = biological target: T2, RRM2 analog F124A (Homo sapiens, UniProt Q8IUH3 23-202, F29A;F70A;F124A)
T2 sequence: T1 sequence with F102A, A143Y

[1] = biological target: T3, RBM45 RRM1-2 F29A/F70A (RRM2 analog) (Homo sapiens, UniProt Q8IUH3 23-202, F29A;F70A)
T3 sequence: T1 sequence with A143Y

RRM1 analog K100A = biological target: T4, RRM1 analog K100A (Homo sapiens, UniProt Q8IUH3 23-202, K100A;F124A;Y165A)
T4 sequence: T1 sequence with A7F, A48F, K78A, F102A

[2] = biological target: T5, RBM45 RRM1-2 F124A/Y165A (RRM1 analog) (Homo sapiens, UniProt Q8IUH3 23-202, F124A;Y165A)
T5 sequence: T1 sequence with A7F, A48F, F102A

RRM1 analog D114A = biological target: T6, RRM1 analog D114A (Homo sapiens, UniProt Q8IUH3 23-202, D114A;F124A;Y165A)
T6 sequence: T1 sequence with A7F, A48F, D92A, F102A

Binder: GGACGG (ssRNA) [GGACGG RNA]
- Kd (RRM2 analog Y165A): 20.4 µM
- Kd (RRM2 analog F124A): 15.6 µM
- Kd [1]: 1.48 ± 0.11 µM
- Kd (RRM1 analog K100A): 4.59 µM
- Kd [2]: 0.788 ± 0.092 µM
- Kd (RRM1 analog D114A): 1.13 µM
